Test results reported in the MegaScale stability set (Tsuboyama et al. 2023).

B1: EHEE_rd4_0726 (parent)
chain: DIEITTNGEEDAKRVIKELQKRNLEYHIEVHGNQWVIKVR
B2: EHEE_rd2_0191 (parent)
chain: TTEYTFTDDEEARRAIEELKKRGLTFRYEKHGTTWRVRVD

Variants of: B1
Experiment: folding stability dG (cDNA display proteolysis); higher = more stable
Conditions: PBS, room temperature

Folding stability dG [kcal/mol], by site and new letter:
E3: T 3.12 | Y 3.11 | F 2.93 | W 3.35 | N 1.87 | I 3.45 | P 0.973 | M 2.74 | V 3.33 | Q 2.37 | G 1.25 | H 2.31 | S 2.5 | L 2.76 | A 2.16 | D 1.78 | R 2.34 | K 2.18
A12: L 2.53 | G 1.43 | W 1.51 | K 1.06 | H 1.01 | F 2.45 | T 1.74 | P -0.076 | Q 0.813 | R 1.17 | S 1.28 | Y 1.82 | M 2.51 | I 1.49 | N 0.444 | E -0.056 | V 1.74
D11: E 2.95 | H 2.52 | W 2.62 | S 2.3 | K 1.78 | G 1.92 | R 1.99 | L 2.12 | T 2.05 | P 1.49 | F 2.31 | V 1.93 | M 2.59 | N 2.28 | A 2.73 | Y 2.21 | I 2.03 | Q 2.63
I16: K 0.043 | E 1.34 | L 1.83 | Y 0.637 | W 0.844 | F 1.02 | S 0.705 | G 0.895 | A 1.54 | N -0.729 | M 2.04 | V 1.94 | Q 0.929 | T 1.25 | H -0.379 | R 0.31
T6: R 1.53 | Y 1.59 | I 3.08 | G 2.65 | K 1.22 | L 2.84 | V 3.55 | F 2.32 | H 0.768 | P 1.51 | A 2.62 | M 2.38 | E 0.908 | S 1.47 | W 1.04 | D 0.026 | N 0.494 | Q 0.841
G8: P 0.219 | C 2.33 | A 1.91 | M 1.69 | T 3.07 | E 1.77 | S 3.27 | H 2.1 | L 1.83 | Q 1.84 | W 1.75 | V 1.92 | R 2.33 | K 2.02 | I 1.95 | F 1.97 | D 2.64 | N 3.23 | Y 1.92
N7: S 2.26 | Q 2.4 | Y 3.03 | P 1.36 | C 2.87 | I 2.43 | H 2.42 | D 2.4 | M 2.54 | V 2.29 | T 2.34 | A 2.19 | R 2.25 | G 1.78 | L 2.47 | F 2.75 | W 3.1 | K 2.1 | E 2.41
I2: G 1.4 | A 1.53 | V 2.15 | E 1.54 | C 2.82 | R 1.97 | M 2.43 | K 1.58 | L 2.52 | D 1.41 | W 3.69 | T 1.91 | H 2.06 | S 1.65 | Y 3.27 | P 1.06 | Q 1.69 | N 1.49 | F 3.22
R14: S 1.82 | T 1.84 | C 2.57 | E 2.04 | D 1.59 | F 2.24 | A 2.33 | N 1.9 | W 2.85 | K 2.43 | Y 2.2 | M 2.27 | V 2.04 | I 2.19 | H 1.83 | G 1.51 | P 1.04 | Q 2 | L 2.3
K13: D 1.72 | E 1.97 | A 2.4 | S 1.93 | Y 2.73 | C 2.59 | W 3 | F 2.58 | G 1.76 | I 2.52 | M 2.96 | T 1.96 | N 2.32 | R 2.71 | L 2.76 | V 2.12 | P 0.028 | H 2.24 | Q 2.52
E9: K 2.06 | T 1.52 | V 2.15 | R 2.19 | W 3.31 | D 1.5 | F 2.52 | P 2.46 | M 2.12 | A 2.26 | H 1.92 | Y 2.78 | L 2.36 | N 1.36 | I 2.48 | G 1.76 | S 1.86 | Q 1.92
V15: M 1.79 | Q 0.871 | I 2.91 | A 1.38 | Y 1.99 | E 0.404 | K 1.2 | G -0.213 | T 1.27 | H 1.23 | S 0.278 | F 1.97 | L 2.2 | W 2.41 | P -0.481 | C 2.29 | R 0.981 | N 0.1
E10: C 2.43 | L 2.15 | A 2.4 | F 2.05 | D 2.25 | T 1.93 | N 1.93 | V 2.02 | G 1.77 | S 1.95 | P 1.52 | H 2.02 | Y 2.07 | Q 2.16 | I 2.01 | M 2.05 | R 2.18 | K 2.14 | W 2.21
D1: W 4.08 | V 2.77 | N 2.37 | M 2.87 | I 2.87 | P 2.29 | H 2.48 | T 2.63 | G 2.43 | E 2.59 | K 1.97 | F 3.31 | C 2.75 | Y 3.38 | Q 2.36 | R 2.24 | L 2.76 | A 2.34 | S 2.39
I4: N -0.395 | P 0.107 | E 0.017 | T 0.528 | H 0.697 | L 1.66 | A 0.165 | F 2.12 | D -0.582 | M 1.23 | W 1.99 | K 0.22 | V 1.57 | Y 2.15 | S 0.002 | R 0.4 | Q 0.094 | G -0.292
T5: M 2.39 | L 2.49 | S 1.96 | K 2.32 | G 1.08 | Q 2 | E 1.66 | F 2.77 | H 2.61 | I 3.17 | W 3.48 | Y 2.91 | P 1.59 | N 1.75 | V 3.03 | R 2.92 | D 1 | A 1.84 | C 2.86
K17: E 2.49 | D 2.06 | G 1.97 | F 2.5 | A 2.74

Variants of: B2
Experiment: as above
Conditions: PBS, room temperature

Folding stability dG [kcal/mol], by site and new letter:
V39: A 0.227 | W 0.937 | F 1.24 | M 1.02 | Y 0.601 | H -0.386 | E -0.709 | S -0.316 | I 2.02 | T 0.562 | L 1.6 | Q -0.645 | P -0.946
D40: G 2.1 | M 2.68 | L 2.78 | Q 2.19 | H 2.19 | F 3.35 | R 1.95 | S 2.17 | P 1.86 | A 2.04 | T 2.38 | E 2.31 | Y 3.29 | V 2.54 | N 2.04 | I 2.83 | C 3.04 | W 3.19 | K 1.9
R38: V 3.23 | T 2.95 | Y 3.62 | W 4.04
